# Source: IntAct's records for PubMed 18786923
# B1: Complement factor H (Homo sapiens), P08603 (parent)
# chain: MRLLAKIICLMLWAICVAEDCNELPPRRNTEILTGSWSDQTYPEGTQAIYKCRPGYRSLGNVIMVCRKGEWVALNPLRKCQKRPCGHPGDTPFGTFTLTGGNVFEYGVKAVYTCNEGYQLLGEINYRECDTDGWTNDIPICEVVKCLPVTAPENGKIVSSAMEPDREYHFGQAVRFVCNSGYKIEGDEEMHCSDDGFWSKEKPKCVEISCKSPDVINGSPISQKIIYKENERFQYKCNMGYEYSERGDAVCTESGWRPLPSCEEKSCDNPYIPNGDYSPLRIKHRTGDEITYQCRNGFYPATRGNTAKCTSTGWIPAPRCTLKPCDYPDIKHGGLYHENMRRPYFPVAVGKYYSYYCDEHFETPSGSYWDHIHCTQDGWSPAVPCLRKCYFPYLENGYNQNYGRKFVQGKSIDVACHPGYALPKAQTTVTCMENGWSPTPRCIRVKTCSKSSIDIENGFISESQYTYALKEKAKYQCKLGYVTADGETSGSITCGKDGWSAQPTCIKSCDIPVFMNARTKNDFTWFKLNDTLDYECHDGYESNTGSTTGSIVCGYNGWSDLPICYERECELPKIDVHLVPDRKKDQYKVGEVLKFSCKPGFTIVGPNSVQCYHFGLSPDLPICKEQVQSCGPPPELLNGNVKEKTKEEYGHSEVVEYYCNPRFLMKGPNKIQCVDGEWTTLPVCIVEESTCGDIPELEHGWAQLSSPPYYYGDSVEFNCSESFTMIGHRSITCIHGVWTQLPQCVAIDKLKKCKSSNLIILEEHLKNKKEFDHNSNIRYRCRGKEGWIHTVCINGRWDPEVNCSMAQIQLCPPPPQIPNSHNMTTTLNYRDGEKVSVLCQENYLIQEGEEITCKDGRWQSIPLCVEKIPCSQPPQIEHGTINSSRSSQESYAHGTKLSYTCEGGFRISEENETTCYMGKWSSPPQCEGLPCKSPPEISHGVVAHMSDSYQYGEEVTYKCFEGFGIDGPAIAKCLGEKWSHPPSCIKTDCLSLPSFENAIPMGEKKDVYKAGEQVTYTCATYYKMDGASNVTCINSRWTGRPTCRDTSCVNPPTVQNAYIVSRQMSKYPSGERVRYQCRSPYEMFGDEEVMCLNGNWTEPPQCKDSTGKCGPPPPIDNGDITSFPLSVYAPASSVEYQCQNLYQLEGNKRITCRNGQWSEPPKCLHPCVISREIMENYNIALRWTAKQKLYSRTGESVEFVCKRGYRLSSRSHTLRTTCWDGKLEYPTCAKR
# partner: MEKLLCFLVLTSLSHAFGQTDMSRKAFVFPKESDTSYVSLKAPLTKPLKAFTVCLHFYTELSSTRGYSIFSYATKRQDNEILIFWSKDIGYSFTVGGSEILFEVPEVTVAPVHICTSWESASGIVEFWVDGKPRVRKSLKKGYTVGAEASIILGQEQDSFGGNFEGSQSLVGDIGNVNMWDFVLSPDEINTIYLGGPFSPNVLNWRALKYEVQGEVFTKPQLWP
# Variants of: B1
# Details: with crp_human CRP
row,effect of a mutation on the interaction,Variant
1,with no effect,Y402H

# Variants of: B1
# Details: with crp_human CRP
# Remark: another data set of the same source
row,effect of a mutation on the interaction,Variant
1,decreasing interaction strength,Y402H
